We go through two proteins from PMC7583906, “Functional Recovery of a GCDH Variant Associated to Severe Deflavinylation—Molecular Insights into Potential Beneficial Effects of Riboflavin Supplementation in Glutaric Aciduria-Type I Patients” (International Journal of Molecular Sciences, 2020).

Values joined by “and” are separate entries in the source; they are usually repeats but may differ in a detail not shown here. Equal entries are not always repeated.

This data set deals with the molecule itself. Description: SEC; Superdex 200 10/300 GL, 10 mM HEPES pH 7.8, 150 mM NaCl, typically 0.5 mg applied; holoprotein (FAD bound) as purified; Gaussian deconvolution of the profile. On the technique in general: Size exclusion chromatography separates by hydrodynamic size, large species first.

B1: glutaryl-coenzyme A (CoA) dehydrogenase, wild-type (GCDH-WT) (enzyme, human)
chain: EFDWQDPLVLEEQLTTDEILIRDTFRTYCQERLMPRILLANRNEVFHREIISEMGELGVLGPTIKGYGCAGVSSVAYGLLARELERVDSGYRSAMSVQSSLVMHPIYAYGSEEQRQKYLPQLAKGELLGCFGLTEPNSGSDPSSMETRAHYNSSNKSYTLNGTKTWITNSPMADLFVVWARCEDGCIRGFLLEKGMRGLSAPRIQGKFSLRASATGMIIMDGVEVPEENVLPGASSLGGPFGCLNNARYGIAWGVLGASEFCLHTARQYALDRMQFGVPLARNQLIQKKLADMLTEITLGLHACLQLGRLKDQDKAAPEMVSLLKRNNCGKALDIARQARDMLGGNGISDEYHVIRHAMNLEAVNTYEGTHDIHALILGRAITGIQAFTASK
notes: human glutaryl-CoA dehydrogenase (GCDH), recombinant; source: E. coli BL21 (DE3), soluble extract incubated overnight with excess FAD, purified (HisTrap HP)
In the case of B1, the “stoichiometry N” value came out at 4.

B2: GCDH-p.Val400Met clinical variant (enzyme, human)
chain: EFDWQDPLVLEEQLTTDEILIRDTFRTYCQERLMPRILLANRNEVFHREIISEMGELGVLGPTIKGYGCAGVSSVAYGLLARELERVDSGYRSAMSVQSSLVMHPIYAYGSEEQRQKYLPQLAKGELLGCFGLTEPNSGSDPSSMETRAHYNSSNKSYTLNGTKTWITNSPMADLFVVWARCEDGCIRGFLLEKGMRGLSAPRIQGKFSLRASATGMIIMDGVEVPEENVLPGASSLGGPFGCLNNARYGIAWGVLGASEFCLHTARQYALDRMQFGVPLARNQLIQKKLADMLTEITLGLHACLQLGRLKDQDKAAPEMVSLLKRNNCGKALDIARQARDMLGGNGISDEYHMIRHAMNLEAVNTYEGTHDIHALILGRAITGIQAFTASK
notes: human glutaryl-CoA dehydrogenase (GCDH), disease variant p.Val400Met of glutaric aciduria type I, recombinant; The assays tell the states apart; also called holo GCDH-p.Val400Met; apo GCDH-p.Val400Met; source: E. coli BL21 (DE3), purified (HisTrap HP); holo form from soluble extract incubated overnight with excess FAD, apo form without the FAD incubation
For B2, the “stoichiometry N” value is 4 and 2.

As usually defined, the stoichiometry N is a count of units in the complex or per binding partner.
